Residue numbers refer to the chain shown, from its start. Numbers in names are those of the source. Read-outs that look alike come from different tables or passages of the source.
T1: FcγRIIb (human, UniProt P31994 43-217)
T1 construct: extracellular domain; also called FcgRIIb; 2b; not shown: His tag at the C terminus
T1 sequence (looked up): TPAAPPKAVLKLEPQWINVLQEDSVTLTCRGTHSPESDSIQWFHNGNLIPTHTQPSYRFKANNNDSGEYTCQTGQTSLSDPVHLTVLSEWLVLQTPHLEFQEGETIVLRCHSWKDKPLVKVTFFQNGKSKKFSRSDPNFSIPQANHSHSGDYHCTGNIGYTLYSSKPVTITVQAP

T2: FcgRIIa R (human, UniProt P12318 34-217)
T2 construct: extracellular domain; also called FcγRIIa R; FcγRIIa type R; not shown: His tag attached to the C terminus
T2 sequence (looked up): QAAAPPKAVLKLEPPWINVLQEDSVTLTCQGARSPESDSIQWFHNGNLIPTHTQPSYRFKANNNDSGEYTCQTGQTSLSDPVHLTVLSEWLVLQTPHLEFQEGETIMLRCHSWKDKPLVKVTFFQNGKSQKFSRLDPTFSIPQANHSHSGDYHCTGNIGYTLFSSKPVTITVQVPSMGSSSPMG

T3: FcgRIIa H (human, UniProt P12318 34-217)
T3 construct: extracellular domain; also called FcγRIIa H; FcγRIIa type H; not shown: His tag attached to the C terminus
T3 sequence (looked up): T2 sequence (looked up) with R134H

T4: FcgRIIb (human, UniProt P31994 43-217)
T4 construct: extracellular domain; also called FcγRIIb; not shown: His tag attached to the C terminus
T4 sequence (looked up): T1 sequence (looked up)

B1: GpH7-A5/GpH7-B3 variant K326_02A/GpL16-k0 (antibody, human IgG1, kappa)
heavy 1: not shown
heavy 2: not shown
light: DIVMTQSPLSLPVTPGEPASISCQASESLVHSNRNTYLHWYLQKPGQSPQLLIYKVSNRFSGVPDRFSGSGSGTDFTLKISRVEAEDVGVYYCSQNTHVPPTFGQGTKVEIERTVAAPSVFIFPPSDEQLKSGTASVVCLLNNFYPREAKVQWKVDNALQSGNSQESVTEQDSKDSTYSLSSTLTLSKADYEKHKVYACEVTHQGLSSPVTKSFNRGEC
notes: heterodimerized IgG1; alteration in the GpH7-B3 H chain only; also called He Ab
B2: GpH7-A5/GpH7-B3 variant H268_10E/GpL16-k0 (antibody, human IgG1, kappa)
heavy 1: not shown
heavy 2: not shown
light: B1 light
notes: as for B1
B3: GpH7-A5/GpH7-B3 variant K326_20W/GpL16-k0 (antibody, human IgG1, kappa)
heavy 1: not shown
heavy 2: not shown
light: B1 light
notes: as for B1
B4: GpH7-A5/GpH7-B3 variant K326_14T/GpL16-k0 (antibody, human IgG1, kappa)
heavy 1: not shown
heavy 2: not shown
light: B1 light
notes: as for B1
B5: GpH7-A5/GpH7-B3 variant K326_08L/GpL16-k0 (antibody, human IgG1, kappa)
heavy 1: not shown
heavy 2: not shown
light: B1 light
notes: as for B1
B6: GpH7-A5/GpH7-B3 variant K326_19Q/GpL16-k0 (antibody, human IgG1, kappa)
heavy 1: not shown
heavy 2: not shown
light: B1 light
notes: as for B1
B7: GpH7-A5/GpH7-B3 variant K326_10E/GpL16-k0 (antibody, human IgG1, kappa)
heavy 1: not shown
heavy 2: not shown
light: B1 light
notes: as for B1
B8: GpH7-A5/GpH7-B3 variant K326_03V/GpL16-k0 (antibody, human IgG1, kappa)
heavy 1: not shown
heavy 2: not shown
light: B1 light
notes: as for B1
B9: GpH7-A5/GpH7-B3 variant H268_13S/GpL16-k0 (antibody, human IgG1, kappa)
heavy 1: not shown
heavy 2: not shown
light: B1 light
notes: as for B1
B10: GpH7-A5/GpH7-B3 variant K326_06M/GpL16-k0 (antibody, human IgG1, kappa)
heavy 1: not shown
heavy 2: not shown
light: B1 light
notes: as for B1
B11: GpH7-A5/GpH7-B3 variant H268_18N/GpL16-k0 (antibody, human IgG1, kappa)
heavy 1: not shown
heavy 2: not shown
light: B1 light
notes: as for B1
B12: GpH7-A5/GpH7-B3 variant K326_15Y/GpL16-k0 (antibody, human IgG1, kappa)
heavy 1: not shown
heavy 2: not shown
light: B1 light
notes: as for B1
B13: GpH7-A5/GpH7-B3 variant K326_07I/GpL16-k0 (antibody, human IgG1, kappa)
heavy 1: not shown
heavy 2: not shown
light: B1 light
notes: as for B1
B14: GpH7-A5/GpH7-B3 variant P271_01G/GpL16-k0 (antibody, human IgG1, kappa)
heavy 1: not shown
heavy 2: not shown
light: B1 light
notes: as for B1
B15: GpH7-A5/GpH7-B3 variant K326_09D/GpL16-k0 (antibody, human IgG1, kappa)
heavy 1: not shown
heavy 2: not shown
light: B1 light
notes: as for B1
B16: GpH7-A5/GpH7-B3 variant K326_04F/GpL16-k0 (antibody, human IgG1, kappa)
heavy 1: not shown
heavy 2: not shown
light: B1 light
notes: as for B1
B17: H240-Kn061 (Y235I)/H240-Hl071/L73-k0 (antibody, human IgG1, kappa)
heavy 1: QDQLVQSGAEVKKPGASVKVSCKASGFNIKDTYIQWVRQAPGQGLEWMGRIDPLRKQTKYREKFEGRVTITADTSTNTAYMELSSLRSEDTAVYYCVRSGREFDYWGQGTLVTVSSASTKGPSVFPLAPSSKSTSGGTAALGCLVKDYFPEPVTVSWNSGALTSGVHTFPAVLQSSGLYSLSSVVTVPSSSLGTQTYICNVNHKPSNTKVDKKVEPKSCDKTHTCPPCPAPEYIWGPSVFLFPPKPKDTLMISRTPEVTCVVVDVSDEDPEVKFNWYVDGVEVHNAKTKPREEQYNATYRVVSVLTVLHQDWLNGKEYKCKVSNKALPAPIEKTISKAKGQPREPQVCTLPPSRDELTKNQVSLWCLVKGFYPSDIAVEWESNGQPENNYKTTPPVLDSDGSFFLYSKLTVDKSRWQQGNVFSCSVMHEALHNHYTQKSLSLSP
heavy 2: QDQLVQSGAEVKKPGASVKVSCKASGFNIKDTYIQWVRQAPGQGLEWMGRIDPLRKQTKYREKFEGRVTITADTSTNTAYMELSSLRSEDTAVYYCVRSGREFDYWGQGTLVTVSSASTKGPSVFPLAPSSKSTSGGTAALGCLVKDYFPEPVTVSWNSGALTSGVHTFPAVLQSSGLYSLSSVVTVPSSSLGTQTYICNVNHKPSNTKVDKKVEPKSCDKTHTCPPCPAPELLGGPSVFLFPPKPKDTLMISRTPEVTCVVVDVSHEDPEVKFNWYVDGVEVHNAKTKPREEQYNSTYRVVSVLTVLHQDWLNGKEYKCKVSNDALPMPIEETISKAKGQPREPQVYTLPPSRCELTKNQVSLSCAVKGFYPSDIAVEWESNGQPENNYKTTPPVLDSDGSFFLVSKLTVDKSRWQQGNVFSCSVMHEALHNHYTQKSLSLSP
light: DIQMTQSPSSLSASVGDRVTITCRASQDIHKYIAWYQQKPGQAPRLLIQYTSTLQPGVPSRFSGSGSGTDYTFTISSLQPEDIATYYCLQYEQLRTFGGGTKVEIKRTVAAPSVFIFPPSDEQLKSGTASVVCLLNNFYPREAKVQWKVDNALQSGNSQESVTEQDSKDSTYSLSSTLTLSKADYEKHKVYACEVTHQGLSSPVTKSFNRGEC
B18: H240-Kn061 (Y235Q)/H240-Hl071/L73-k0 (antibody, human IgG1, kappa)
heavy 1: B17 heavy 1 with I234Q
heavy 2: B17 heavy 2
light: B17 light
B19: H240-Kn061 (Y235P)/H240-Hl071/L73-k0 (antibody, human IgG1, kappa)
heavy 1: B17 heavy 1 with I234P
heavy 2: B17 heavy 2
light: B17 light
B20: H240-Kn061 (Y235V)/H240-Hl071/L73-k0 (antibody, human IgG1, kappa)
heavy 1: B17 heavy 1 with I234V
heavy 2: B17 heavy 2
light: B17 light

Key:
FcγRIa [1] = molecular target: T5, FcγRIa (human, UniProt P12314 16-292); test: SPR (Biacore); He/Con_1a (FcγRIa) divided by He/Con_2b (FcγRIIb)
T5 construct: extracellular domain; also called FcgRI; 1a; not shown: His tag at the C terminus

FcγRIa [2] = molecular target: T5, FcγRIa; test: SPR (Biacore), antibody captured, FcγR as analyte; binding as % of GpH7-A5/GpH7-B3/GpL16-k0
FcγRIIb = molecular target: T1, FcγRIIb; test: as above
FcgRIIa R = molecular target: T2, FcgRIIa R; test: SPR (Biacore); KD of H240-Kn061/H240-Hl071/L73-k0 divided by KD of the variant
FcgRIIa H = molecular target: T3, FcgRIIa H; test: as above
FcgRIIb [3] = molecular target: T4, FcgRIIb; test: as above
FcgRIIIa F [4] = molecular target: T6, FcgRIIIa F (human, UniProt P08637 17-208); test: as above
T6 construct: extracellular domain; also called FcγRIIIa F; 3aF; not shown: His tag attached to the C terminus

FcgRIIIa V [5] = molecular target: T7, FcgRIIIa V (human, UniProt P08637 17-208); test: as above
T7 construct: extracellular domain; also called FcγRIIIa V; not shown: His tag attached to the C terminus

FcgRIIb [6] = molecular target: T4, FcgRIIb; test: as above; remark: listed apart in the source
FcgRIIIa F [7] = molecular target: T6, FcgRIIIa F; test: as above; remark: listed apart in the source
FcgRIIIa V [8] = molecular target: T7, FcgRIIIa V; test: as above; remark: listed apart in the source

T5 sequence (P12314 16-292): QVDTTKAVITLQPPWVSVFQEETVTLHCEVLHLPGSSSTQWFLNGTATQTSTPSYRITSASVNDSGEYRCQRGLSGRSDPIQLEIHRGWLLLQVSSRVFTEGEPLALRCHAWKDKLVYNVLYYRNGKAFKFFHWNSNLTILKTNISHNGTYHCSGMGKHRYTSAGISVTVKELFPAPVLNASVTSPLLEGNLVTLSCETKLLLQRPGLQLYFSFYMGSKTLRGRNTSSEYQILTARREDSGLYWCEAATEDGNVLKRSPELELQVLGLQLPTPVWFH
T6 sequence (P08637 17-208): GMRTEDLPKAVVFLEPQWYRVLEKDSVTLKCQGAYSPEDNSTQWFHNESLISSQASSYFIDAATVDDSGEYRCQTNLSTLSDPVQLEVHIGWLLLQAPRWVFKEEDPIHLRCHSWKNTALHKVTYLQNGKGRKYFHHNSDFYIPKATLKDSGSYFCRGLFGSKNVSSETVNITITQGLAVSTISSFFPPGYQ
T7 sequence (P08637 17-208 F176V limits assumed): as the sequence (P08637 17-208) above, with F160V counted along it

| Binder | Ia/IIb He_1a/2b (FcγRIa [1]) [ratio] | He/Con_1a (FcγRIa [2]) | He/Con_2b (FcγRIIb) | Relative KD (FcgRIIa R) | Relative KD (FcgRIIa H) | Relative KD (FcgRIIb [3]) | Relative KD (FcgRIIIa F [4]) | Relative KD (FcgRIIIa V [5]) | Relative KD (FcgRIIb [6]) | Relative KD (FcgRIIIa F [7]) | Relative KD (FcgRIIIa V [8]) |
| --- | --- | --- | --- | --- | --- | --- | --- | --- | --- | --- | --- |
| B1 | 0.73 | 102 % of control | 139 % of control |  |  |  |  |  |  |  |  |
| B2 | 0.48 | 111 % of control | 230 % of control |  |  |  |  |  |  |  |  |
| B3 | 0.69 | 103 % of control | 148 % of control |  |  |  |  |  |  |  |  |
| B4 | 0.7 | 104 % of control | 150 % of control |  |  |  |  |  |  |  |  |
| B5 | 0.57 | 100 % of control | 177 % of control |  |  |  |  |  |  |  |  |
| B6 | 0.73 | 102 % of control | 139 % of control |  |  |  |  |  |  |  |  |
| B7 | 0.52 | 104 % of control | 200 % of control |  |  |  |  |  |  |  |  |
| B8 | 0.58 | 102 % of control | 175 % of control |  |  |  |  |  |  |  |  |
| B9 | 0.68 | 109 % of control | 160 % of control |  |  |  |  |  |  |  |  |
| B10 | 0.62 | 102 % of control | 165 % of control |  |  |  |  |  |  |  |  |
| B11 | 0.69 | 108 % of control | 156 % of control |  |  |  |  |  |  |  |  |
| B12 | 0.66 | 106 % of control | 159 % of control |  |  |  |  |  |  |  |  |
| B13 | 0.51 | 101 % of control | 199 % of control |  |  |  |  |  |  |  |  |
| B14 | 0.54 | 105 % of control | 193 % of control |  |  |  |  |  |  |  |  |
| B15 | 0.54 | 103 % of control | 193 % of control |  |  |  |  |  |  |  |  |
| B16 | 0.66 | 102 % of control | 155 % of control |  |  |  |  |  |  |  |  |
| B17 |  |  |  | 0.7 | 0.4 | 0.2 | 1.3 | 1.6 | 0.2 | 1.3 | 1.6 |
| B18 |  |  |  | 0.8 | 0.4 | 0.1 | 1 | 1.3 | 0.1 | 1 | 1.3 |
| B19 |  |  |  | 0.6 | 0.4 | 0.5 | 1.1 | 1.5 | 0.5 | 1.1 | 1.5 |
| B20 |  |  |  | 0.5 | 0.4 | 0.2 | 1.2 | 1.3 | 0.2 | 1.2 | 1.3 |
